Experimental data: US20250333531A1

Biological target: human CD37 (human) (UniProt P11049)
Experiment: flow cytometry on Ramos cells (HEK293 supernatants), MFI normalised to chHH1-DOTA

Chain of human CD37 (human) (P11049 whole entry): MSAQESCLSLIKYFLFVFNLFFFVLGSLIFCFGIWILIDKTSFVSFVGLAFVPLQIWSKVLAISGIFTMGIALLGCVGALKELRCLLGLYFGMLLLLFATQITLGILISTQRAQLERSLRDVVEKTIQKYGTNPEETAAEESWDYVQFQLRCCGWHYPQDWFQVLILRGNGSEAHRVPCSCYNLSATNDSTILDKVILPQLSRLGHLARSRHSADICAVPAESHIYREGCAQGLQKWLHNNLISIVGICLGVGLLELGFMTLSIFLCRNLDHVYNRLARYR

B1: HC1 + LC1 (antibody, human IgG1, V domains shown)
VH: QVQLVQSGAEVKKPGASVKVSCKASGYSFTDYNMYWVRQAPGQRLEWMGYIDPYNGDTTYNQKFKGRVTITRDTSASTAYMELSSLRSEDTAVYYCARSPYGHYAMDYWGQGTLVTVSS
VL: DIQMTQSPSSLSASVGDRVTITCKASQDVSTAVDWYQQKPGKAPKLLIYWASTRHTGVPSRFSGSGSGTDFTLTISSLQPEDFATYYCRQHYSTPFTFGQGTKLEIK
Normalized average binding (%): 40%
